These are literature values, as cited in article PMC3577484.

The series deals with insulin receptor (Xenopus laevis) (UniProt Q9PVZ4). The series can be described thus: Scatchard radioligand binding.

“And” between values parts separate entries of the source, which are not always exact repeats. Equal entries are not always repeated.

Chain of UniProt Q9PVZ4 (Q9PVZ4 759-1362): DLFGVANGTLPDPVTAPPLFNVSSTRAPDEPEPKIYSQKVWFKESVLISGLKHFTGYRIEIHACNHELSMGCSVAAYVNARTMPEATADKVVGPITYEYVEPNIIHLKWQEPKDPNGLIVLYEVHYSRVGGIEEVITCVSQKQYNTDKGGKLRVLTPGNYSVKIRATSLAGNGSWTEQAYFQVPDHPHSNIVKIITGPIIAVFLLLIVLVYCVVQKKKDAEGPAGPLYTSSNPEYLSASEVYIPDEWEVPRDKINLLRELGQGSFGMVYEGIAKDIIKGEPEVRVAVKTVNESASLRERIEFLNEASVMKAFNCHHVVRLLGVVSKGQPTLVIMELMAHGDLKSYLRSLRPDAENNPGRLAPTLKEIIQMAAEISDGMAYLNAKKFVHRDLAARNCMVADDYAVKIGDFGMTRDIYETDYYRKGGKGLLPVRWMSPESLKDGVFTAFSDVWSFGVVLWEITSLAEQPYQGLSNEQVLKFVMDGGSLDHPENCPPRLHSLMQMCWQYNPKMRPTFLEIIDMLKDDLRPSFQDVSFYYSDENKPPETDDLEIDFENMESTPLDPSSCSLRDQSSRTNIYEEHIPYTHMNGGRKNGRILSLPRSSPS
Chain of insulin (F8WCM5 25-54): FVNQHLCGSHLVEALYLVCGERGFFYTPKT
Chain of insulin (P01308 90-110, further chain): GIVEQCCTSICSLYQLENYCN

Regarding insulin (from UniProt P01308), the equilibrium dissociation constant (Kd) was 0.886 nM and 5.32 nM.

A word on the Kd: it is the free concentration of one partner at which half of the binding sites on the other are occupied at equilibrium, for simple one-to-one binding.
